The text below walks through data of US8013137B2, “Modified enteropeptidase protein” (National University Corporation Hokkaido University, priority 2006, dated 2011).

What all share (type): biochemical
Series [1] relates to GD4K-βNA. Kind of series: EP activity and kinetic study with specific substrate GD4K-βNA. The conditions noted are these: for Km / kcat: substrate GD4K-βna. The procedure:
(A) Active recombinant EP proteases were assayed using a GD4K-βNA (SEQ ID NO: 6) substrate as a substrate. Bovine (Nvg), bovine EP protease available from Novagen; Bovine (Neb), bovine EP protease available from NEB. (B) Active recombinant EP proteases were assayed using various synthetic peptide substrates. (C) Active EP proteases were analyzed by gelatin zymography. (D) Fibronectin (4 μg) was incubated with active EPs (100 ng) at 37° C. for 12 h. (E) Laminin ((10 μg) was incubated with active recombinant EPs (100 ng) at 37° C. for 12 h. (F) Two μg of the control protein containing the D4K site (SEQ ID NO: 1) was incubated with active recombinant EPs (100 ng) at 37° C. for 1 h.
(A) The purity of purified recombinant Medaka EP-1 and EP-2 protease was assessed by SDS-PAGE. Lane 1, Medaka EP fusion protein; lane 2, Medaka EP protease treated with immobilized trypsin; lane 3, Medaka EP protease purified using a resource Q column. (B) The enzyme activities of EP proteases were determined at various pHs using GD4K-βNA (SEQ ID NO: 6) as a substrate. (C) Recombinant Medaka trypsinogen was incubated at 37° C. with EPs for 15, 30 and 45 min. After incubation, samples were analyzed by SDS-PAGE and visualized by CBB staining (upper panel). The relative amount of the active form of Medaka trypsin at each time point were calculated based on the results shown in the upper panel (lower panel). The results are presented as the means (±SD) of three separate experiments.
(§1) EP activity was routinely determined using the specific substrate Gly-Asp-Asp-Asp-Asp-Lys-β-naphthylamide (GD4K-βNA) (SEQ ID NO: 6) (Sigma) according to the method of Mikhailova and Rumsh (Mikhailova et al., FEBS Lett., 442:226-230 (1999)). Enzyme activity for various 4-methylcoumaryl-7-amide (MCA)-containing peptide substrates was determined by the method of Barrett (Barrett et al., J., Biochem. J., 187:909-912 (1980)). For kinetic studies, initial velocities, extrapolated from the plot of product versus time, were transformed into double-reciprocal plots (Lineweaver et al., J. Am. Chem. Soc., 56:658-663 (1934)). The maximum velocities (Vmax) and Km and kcat values were obtained from the intercepts of these plots. For all experiments, the results of at least three separate determinations are shown.

The test system of series [2] is GD4K-βNA and the three MCA-containing substrates. Kind of series: Specific activities of wild-type and mutant EP protease using synthetic peptide substrates (FIG. 3A). On the procedure:
(A) The specific activities of wild-type (EP-1) and mutant EP protease were determined using synthetic peptide substrates. (B) High-molecular-weight (HMW) kininogen (5 μg) was incubated with active EP proteases (100 ng) at 37° C. for 2 h and analyzed by SDS-PAGE. (C) Fibrinogen (10 μg) was incubated with active EP proteases (100 ng) at 37° C. for 12 h and analyzed by SDS-PAGE.
as §1

Series [3] relates to Pro-Phe-Arg-MCA. Put plainly: Activity assay of EP proteases and EP-treated hK8 samples with Pro-Phe-Arg-MCA (FIG. 4B middle). On the procedure:
(A) A recombinant fusion protein of Medaka gelatinase A (5 μg) was separately incubated with active EP proteases (100 ng) at 37° C. for 1 h, and analyzed by SDS-PAGE. (B) A recombinant fusion protein of human kallikrein 8 (hK8) (5 μg) was incubated with active EP proteases (100 ng) at 37° C. for 2 h. After incubation, the samples were analyzed by SDS-PAGE (upper panel), or assayed for activity with Pro-Phe-Arg-MCA (middle panel), or Boc-Glu(OBzl)-Ala-Arg-MCA (lower panel). […] The samples were then analyzed by SDS-PAGE/Western blotting using anti-human tPA antibody (upper panel) or anti-His probe antibody (lower panel). The position of sctPA (58- and 61-kDa) detected with the antibodies is shown.
as §1
Next, a 35.5-kDa protein of human kallikrein 8 (hK8) in the same E. coli expression system was synthesized. Digestion with Medaka wild-type and mutant EP proteases generated 31.5-kDa active hK8 by cleaving the D4K sequence (SEQ ID NO: 1) (FIG. 4B, Top). […] The EP protease-treated samples were directly assayed for hK8 activity using Pro-Phe-Arg-MCA, a good synthetic peptide substrate of hK8 (Rajapakse et al., FEBS Lett., 579:6879-6884 (2005)). […] The substrate Boc-Glu(OBzl)-Ala-Arg-MCA, which is slightly cleaved by active hK8, was rapidly hydrolyzed with the samples treated with mammalian, but not Medaka, EP proteases (FIG. 4B, Bottom).

B1: T105E: Medaka EP-1 protease mutant, substitution T105E (protein)
chain: CGQRQVYNSKENNGVPRVVGGVNAEKGAWPWMVSLHWRGRHGCGASLIGRDWLLTAAHCVYGKNTHLQYWSAVLGLHAQSSMNSQEVQIRQVDRIIINKNYNRREKEADIAMMHLQQPVNFTEWVLPVCLASEDQHFPAGRRCFIAGWGRDAEGGSLPDILQEAEVPLVDQDECQRLLPEYTFTSSMLCAGYPEGGVDSCQGDSGGPLMCLEDARWTLIGVTSFGVGCGRPERPGAYARVSAFTSWIAETRRSSFSDLD
In general, Km refers to the concentration of substrate that gives half-maximal velocity. As a reminder, the kcat is the maximal rate divided by the concentration of active sites. On to B1, for which, in series [1], the Km came out at 400 µM and the turnover number (kcat) amounted to 4.33 s⁻¹. Moreover, in series [2], the “enzyme activity for synthetic peptide substrates compared with the wild-type enzyme” value was “reduced enzyme activity for synthetic peptide substrates”.

B2: E173K: Medaka EP-1 protease mutant, substitution E173K (protein)
chain: CGQRQVYNSKENNGVPRVVGGVNAEKGAWPWMVSLHWRGRHGCGASLIGRDWLLTAAHCVYGKNTHLQYWSAVLGLHAQSSMNSQEVQIRQVDRIIINKNYNRRTKEADIAMMHLQQPVNFTEWVLPVCLASEDQHFPAGRRCFIAGWGRDAEGGSLPDILQEAEVPLVDQDKCQRLLPEYTFTSSMLCAGYPEGGVDSCQGDSGGPLMCLEDARWTLIGVTSFGVGCGRPERPGAYARVSAFTSWIAETRRSSFSDLD
For the molecule B2, the “enzyme activity for synthetic peptide substrates compared with the wild-type enzyme” value in series [2] is given as “reduced enzyme activity for synthetic peptide substrates”.

B3: F144A: Medaka EP-1 protease mutant, substitution F144A (protein)
chain: CGQRQVYNSKENNGVPRVVGGVNAEKGAWPWMVSLHWRGRHGCGASLIGRDWLLTAAHCVYGKNTHLQYWSAVLGLHAQSSMNSQEVQIRQVDRIIINKNYNRRTKEADIAMMHLQQPVNFTEWVLPVCLASEDQHFPAGRRCAIAGWGRDAEGGSLPDILQEAEVPLVDQDECQRLLPEYTFTSSMLCAGYPEGGVDSCQGDSGGPLMCLEDARWTLIGVTSFGVGCGRPERPGAYARVSAFTSWIAETRRSSFSDLD
For B3, the “enzyme activity for synthetic peptide substrates compared with the wild-type enzyme” value in series [2] is “at an elevated rate when compared with the wild-type enzyme”.

B4: F144S: Medaka EP-1 protease mutant, substitution F144S (protein)
chain: CGQRQVYNSKENNGVPRVVGGVNAEKGAWPWMVSLHWRGRHGCGASLIGRDWLLTAAHCVYGKNTHLQYWSAVLGLHAQSSMNSQEVQIRQVDRIIINKNYNRRTKEADIAMMHLQQPVNFTEWVLPVCLASEDQHFPAGRRCSIAGWGRDAEGGSLPDILQEAEVPLVDQDECQRLLPEYTFTSSMLCAGYPEGGVDSCQGDSGGPLMCLEDARWTLIGVTSFGVGCGRPERPGAYARVSAFTSWIAETRRSSFSDLD
B4: the “enzyme activity for synthetic peptide substrates compared with the wild-type enzyme” value in series [2] is reported as “reduced enzyme activity for synthetic peptide substrates”.

B5: P193E: Medaka EP-1 protease mutant, substitution P193E (protein)
chain: CGQRQVYNSKENNGVPRVVGGVNAEKGAWPWMVSLHWRGRHGCGASLIGRDWLLTAAHCVYGKNTHLQYWSAVLGLHAQSSMNSQEVQIRQVDRIIINKNYNRRTKEADIAMMHLQQPVNFTEWVLPVCLASEDQHFPAGRRCFIAGWGRDAEGGSLPDILQEAEVPLVDQDECQRLLPEYTFTSSMLCAGYEEGGVDSCQGDSGGPLMCLEDARWTLIGVTSFGVGCGRPERPGAYARVSAFTSWIAETRRSSFSDLD
B5: in series [1], the Km was found to be 400 µM and the turnover number (kcat) worked out at 4.83 s⁻¹. Further, the “enzyme activity for synthetic peptide substrates compared with the wild-type enzyme” value in series [2] was “reduced enzyme activity for synthetic peptide substrates”. Further, the “enzyme activity of the EP protease itself with Pro-Phe-Arg-MCA” value in series [3] is on record as “none of the Medaka EP proteases (wild-type EP-1, K63R, E173A, or E193A) showed any significant enzyme activity”.

B6: Bovine (Neb): bovine EP protease available from NEB (protein)
chain: IVGGSDSREGAWPWVVALYFDDQQVCGASLVSRDWLVSAAHCVYGRNMEPSKWKAVLGLHMASNLTSPQIETRLIDQIVINPHYNKRRKNNDIAMMHLEMKVNYTDYIQPICLPEENQVFPPGRICSIAGWGALIYQGSTADVLQEADVPLLSNEKCQQQMPEYNITENMVCAGYEAGGVDSCQGDSGGPLMCQENNRWLLAGVTSFGYQCALPNRPGVYARVPRFTEWIQSFLH
Regarding B6, in series [1], the Km is 500 µM and the kcat turned out to be 25 s⁻¹. Further, the “enzyme activity of the EP protease itself with Pro-Phe-Arg-MCA” value in series [3] is on record as “considerable enzyme activities were detected”.

B7: Bovine (Nvg): bovine EP protease available from Novagen (protein)
chain: IVGGSDSREGAWPWVVALYFDDQQVCGASLVSRDWLVSAAHCVYGRNMEPSKWKAVLGLHMASNLTSPQIETRLIDQIVINPHYNKRRKNNDIAMMHLEMKVNYTDYIQPICLPEENQVFPPGRICSIAGWGALIYQGSTADVLQEADVPLLSNEKCQQQMPEYNITENMVCAGYEAGGVDSCQGDSGGPLMCQENNRWLLAGVTSFGYQCALPNRPGVYARVPRFTEWIQSFLH
As for B7, in series [1], the Km was 800 µM and the kcat is 12.8 s⁻¹. For the same molecule, the “Pro-Phe-Arg-MCA-hydrolyzing activity of hK8 fusion protein samples treated with EP protease” value in series [3] was “very low activity”.

B8: EP-2: recombinant serine protease domain of Medaka enteropeptidase-2 (AB272105) (protein)
chain: MKRRLTNLEVLLTVTTSLFAVCCVCLIVVSCIGLKPEGAAEPVQLIGQMVITAGAAFSEELRNSSSHLFKSLAFDVQQLVSDAFGASELRLLYRSFRVLYFRPGSIAVTFDLEFNQQIDLNEVKQQLGEGLQQIEDGALVIDVDSIQITEKPSSTTPEPTSTTGHITTETMPITGHTTPAATPTAASCPPDHSLCWDRSTCVLTDVLCDGVSDCPDASDENSSRCATTCDGQFVLGGPNGTFRSSETETYRNNSNCRWIIRMDGGLSVQVNFHHFETEEYSDVLKLYEGVGPHKQLAAELSGPSPPGTVLLLNNQVTVEFTSDGVNDLSGFRASYVAVNTSSLSNQEKLSCSFDQGFCFWRQLQDSFDTWIRTNVPTFPPLTGPNFDHTFGNSSGFYIVTSLSPGQWLKSFVINSLPLAPSSHPTCLSFWYHMFGEDVYRLRVLLRPSQPELTEVVLFHKEGNFGDNWNYAQITLNLSTESTVVFEAQKEGGNQNDIALDDISLRSEGCGPAPPEPTNVPLPTTAAPIPPDCGGPFDLWEPNSTFTSPNYPQSYGDGAECLWTLHAEKGQNIQLHFLDFDVEATYDVVEVRDGAGLNSTLLAVLSGSDGPTRDLYSTDNQMTVWFYTDSGGFGRGFRANFTSGVNLGSQAPCTNGQFQCQTGDCIHGDRQCDGVADCPDGYDEADCVALQVNGSHRLHFLLLRSLLTVCADTWDSELSDFTCQYLGYRSGEESLQSVLPQDAAFAVVTVSSNGTLETQVRETCSSGEVISLNCSNQPCGQRQVYNHGDQSENSKENNGVPRVVGGVNAEKGAWPWMVSLHWRGRHGCGASLIGRDWLLTAAHCVYGKNTHLQYWSAVLGLHAQSSMNSQEVQIRQVDRIIINKNYNRRTKEADIAMMHLQQPVNFTEWVLPVCLASEGQHFPAGRRCFIAGWGRDAEGGSLPDILQEAEVPLVDQDECQRLLPEYTFTSSMLCAGYPEGGVDSCQGDSGGPLMCLEDARWTLIGVTSFGVGCGRPERPGAYARVSAFASWIAETRRSSFSDLD
modifications: Oryzias latipes
For the molecule B8, the “pH of maximal activity for GD4K-βNA” value in series [1] (serine protease domain, FIG. 8B) is 8.
